Assay: protease stability score; higher = more stable; yeast display proteolysis, trypsin and chymotrypsin;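 further: relative to predicted unfolded state with 0 unfolded-like and 1 meaning tenfold more protease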

| Sequence | protease stability score |
| --- | --- |
| HEEERDLEHWDELLLKSITTGDWRILTKLVDPHARIIILVNGKLITHIGREYVYHLLLRFDHIRTHDFRTNIQGDYIDHHIEGKLHVNGKDMDSHIINHSEKVDGRWTVHTVNIEFI | 1.22 |
| HEEEREAHEMLRIIVHAIRTGDEELLMRYLDPDVRMILLVDGVEVHRIGREEASKLISELWHHIRLKDLKVREIDNQGEYSHVRTERDGEVNGKKNTLETELDIIVIDGRVTDVTIRIR | 1.1 |
| HEEERHREEIMERLLTAIKTGDPKITRELIDPHTRIEIGDKNLHGMEIWLKYIHTLFEKFPNLTLRIEDSHAQGEKFIIVIRLRFDGREVNLVLYYTIVNGRIKTIEIEEK | 1.43 |
| HEEERILRFYLEWIEHHLRTGDERFIEENADPNVKIRVNGKDIHGRERYNEVWDKVLRDFGVDHTNDKDTTAYDGRIEVHEEWRFNGRRVDVETIIIFINGVIKHIEIRIRIE | 2.12 |
| HEEERIVEEVAKHFLHHFVTGDWHNLARLADPHVRSDINGRELHGWETLIHVMLKDLRRLGFKHFEVHHVHIQGDKYHNDGTLDYNGVKVRSHLEFQIVDGKLHQMRVQDK | 1.07 |
| HEEERLAREYMKRLIHDWVTGDEREHLKLLDPDVRFVQGDKHHHGREEMMRWFQEIRVEDLKHTDEKVYGEKAFVTGHTTWNINGQKIEVKVHYEFVVVNGRVKMIRIDVQ | 1.22 |
| HEEETHWRSLTHLFAEWIITGNEDLYMELADPHYLIEIDGKTQHGRENANEVHETFWKDYGFKHRHVRSVRQVGDFVEIEVNLLFNGQRYDMHIHVFVIDGKLKEIHVSLK | 1.33 |
| HEEHDEMQEALRRFIDILHTGDEKERKELADPHVRIDVDGVDHHGREWLTKWTVRLAREMRIHPEIKHSEVFNGQIELHTSEKVDFNGVHEIIESFLLVIKINGRWFLTHVQVH | 0.92 |
| HEEHEEAWHEIELTYHLLNTGDFDEMNRLLDPNVRIHIGDKRYHGRHELDLLITKLGVKHVRWEVKHADIQGDKVDMDTIVHITQGDKEIRRDTRIKIRKIDGKWFVTELHVT | 1.28 |
| HEEHEKLRQLIEWYLEMLRTGDEESWLHLADPHVRNDVIYDGRHFQSHGRDRALDLLRLMLDLLGAKHLEVKRYRVIDGRVELDGRSRVGDKYQEMHLHLDVFNGRIHEMRIEIR | 0.58 |
| HEEHESLRRATRHELQTLETGDEDLFEKLVDPNYKVVINGVELHGMHELRRWIIELRIDDFELHDVNVVNGRASIDGTMHTHVNGQRLERKVRIHIEKINGRWVRREYIYH | 0.726 |
| HEEHKHVKELAEMLIEWFLTGDEETTLDMADPDVRIDINGVDKIGRETVVEFKKRQHRDLGWDNIRFRPTHINAFDGRINIEGVIIVNGVTFKTEFRFEVINGRLKLDKWIVR | 0.661 |
| HEEKELVNRSVELSYRVLKTGDEHTLEELLDPDAKTRLNINGKNEKLVGRENVLHIVTWFLDFLGIKHVELRDVRYVGDKVHIDMQIDVNGRHSRWHLIAEKIDGRWFMHSIQVEVH | 0.18 |
| HEEKENIEQFMRDLLHNWTTGNFEKIKEFLDPNTRIDWNGKDIHGRETESEEVKKYGIDHMSIILRHHTVQGDYAHIDTEIKIDINGRKIHIDARIDLLKINGRWVQKHVLYL | 1.3 |
| HEEKHEVQRFLEMLIELLVTGNEEILEHLADPHVRLEIDGRHFHGWKEFTRQYSELLKKLGADHVDMKIHEVHIIGDKVFIRGTDEFRVGDKTERKESHWVLLKVDGRWFIHSVKIG | 1.99 |
| HEEKHLMDEALELIKYFTETGDERQLTEYADPNVRIDIDGQRFHGREDWEELVREWNSRFKNLKFNFREIDVQGEFIHTRGELNVNGKRFDVRIVSDKINGRWILHSIHFE | 1.58 |
| HEELELRRRVLENWTKNMITGNEEETKKLADPNVRIDIDGVELHGMDIWYEYMRHIRIKIQHIERKDVKDYDGKVEVDADSHVEMEVNGKLTSTRRKLIFIHLKVDGRWVIHSISFH | 0.823 |
| HEENKELEDLLRVWMELVETGDEEELLKLADPDWRLDINGRRIHGRDKVLTWLREHREKLGVDHRHLFLKDVRTVNGRVDANGENEVQVNGKRIVIDIRFHLVVINGRIHMISLRLH | 1.15 |
| HEEQELLEEFVEKLRQTLETGDEHFTRELLDPNVRYVQGDKEWHGRDLAAELNKKLGIKVVDIKHVRYWNGRLDLRGEDQVGDKTTHTILHVDKFNGRWFYKEVIFV | 0.721 |
| HEEQKAIEEWAKRLWDVLLTGDEDELHELLDPHVKLEVHVDGKTIHRHGREEVIRFMVEMRIRDFKIEHVQMYGDKLHMNTRSRGIYNGKHRETEVSIIVTVVNGRLKMIIIEIR | 2.06 |
| HEERDLAMHVIKRFIDSTVTGNEQDLTKLLDPHVRIEQGEYHDHGWKYAQLMIERFRNVRIELRIHFIRVQGDKVQVDIDWEVHIGDKVISSRLEMYIIKVNGVWLIRYVIFE | 0.854 |
| HEESEDATRFLHQVIHALYTGDEKRFDELLDPRMRLHIGDKQHVGRENVSEFLLHLRIRHVHVHDFRVFDGRLHVDQTLDGEYDGRRREIHFELQITKINGRWFLNHFWIR | 1.35 |
| HEHDQKSNKMSEILMELWKTGNEDWMDKLVDPNARTDIEVGDKRIENVGMEELHKWLFDHHRRIKGIKIIHRTMEVVGDKVTLHLELRFNGVRVEIIIRLIVIDGRVHSQHYEVRTE | 0.59 |
| HEHEEELHRVFKIFLELWTTGDEESMERLLDPNARWVELQGDKELTLIGRENARNRFKEIFDLAGFKYMHLDHEDIQGEKTRFEMTVEYDGRRTRMLLKIVVINGRVKVVKLEER | 1.32 |
| HEHEEELREFLRLWIEDLVTGNEDSLREFADPNMRIEQGDKEHHGREQFLEIMHRLVREARLEIILRRMNIFDGKANIDGELMIRIGDKHIRHHLRIIILKIDGVWLLKSIHVR | 1.94 |

| Sequence | protease stability score |
| --- | --- |
| HEHEEEVRSMTRLFLHAFVTGDWRTIVELIDPNVRTWFNGKDDHGRESLFKNLIRVLEEFGADHVDITIEEMEVQGNKVRVKMIIEVIVGDKDLRLSINQQAYKVDGRWRVKEIIIH | 0.725 |
| HEHEELIRWAVELLEHNTRTGDEETLIRLADPNVRMIFDGRDLVGRDWLLEFEERLGADHVELEFRHVRIIDGRVHVNGIMRHEFDGVRVERRTTIIVKKINGRWNNRTVEFR | 0.529 |
| HEHEELLREYVERLLEIWRTGDEEKFMKNADPNVRIVYGDKDVHGREIWVEHFKRLFEELGFKYIDLRRVELINGVLHVHGNWNVNGRERKTELEFKIIDGRITSVQIRVH | 1.27 |
| HEHEEMSELWLRIFERSVDTGDWNTLIELADPNVRQDYNGREYHGRESFVHTMREDIHRADHIEFHIDRFRVIGDKLDIDGTIIIRINGQTLIYRSHLHILKYDGRWIIKEVRFK | 1 |
| HEHEKWMEELVRRLKHHLRTGDFETWKELADPNAKVQLVVGDKHVESIGREEMEKWFHDHMMRLGIERFEFNIQSIYVQGEKIHLLGRLHFNGQDERAEIILVVVNGRIKQIHFHLH | 1.2 |
| HEHEQQVREIAKKLLHALLTGDEDEIYRLIDPNVRLIILVGDKEIHVHGRELVSEVMHKLFRELGVDHWHSRSELLIGNKFHVDTEQHFNGQTFETQVHILVIDGKVHLLTLQIH | 1.88 |
| HEHKEEVDELISMALESMHTGDEETWYRMADPHVRMDVNGQDIHGREEVSEIYVHWLREAGVKHIKIEDVKVINGRVDLHIFSKVNGRFFEYRLISEKIDGQWHIKSVRIL | 0.399 |
| HEHTKMLLDMHRLWMELWLTGDEHELEKLLDPNVRIIIHVNGVDISIHGRETVRRVLRHEIKRYDHLEINLKRHSAYDGKVESDTEFRVIFDGKRIELDTRIKNIVINGRTKEWIFELE | 0.619 |
| HEIDEWSEEWKHELIHNLRTGDEHRLKELADPHTRIIIDGREIHGMDFALKLIHKRVMEMRHKEFHIRRIDHQGEKIVMDVEVRVNFNGREDSVNFRIISEKFNGRWIIHYITLI | 1.49 |
| HEIEEEVENAVRLISHLLLTGDEETLHDLADPEMRTIVGDKHLHGREMWSEVIRRLGVDVLVIKEIRVQGDWIHSDGVLLVNGQERDAKIHVRKVNGKWVITTFQLK | 1.8 |
| HEIEEIARHINNIWEERSRTGDFRHFTTLLDPHARIDINGVELHGRELWMSRVYHHFQSHGIEYSVHTKHIEVFDGRVHLHGELFFHFNGVDITIRTHHTMRKVDGRWFVEQIIVH | 0.468 |
| HEIHELLKRVVDMLRTLWETGDEETWNSLADPNTKFVIGDKEVVGMEEITRIFLHERERADHMKFEVRRIRTVGDKADSHGHLRLDIGNKHVTHEIDLHVRVINGRIKQVELRIH | 1.33 |
| HEKEHRLHEIMELWLKLVQTGNEEILMELADPHTKLDIGDKHLHGRELTSRFLLHMRIEDLTIKRIDVQGDYAHIDGHVIGVINGRRFISDRHIHLDIYNGKHRRVEVRIE | 1.01 |
| HEKEKLEKDIWRLLVEWLETGNEHEFEKFMDPDARLFEDVDGKELRIHGREIAMEILHHLWRDFGVDHLVLKKASIIDGVVHLDVILDVNGRRIDTRIIFVIINGRIHSTHIHIR | 1.52 |
| HEKKEAYDYMVEILWKAMHTGDEKTLKHLFDPHTKVTQGDFEIHGMEQFSEHLKHARYRRVRVKFEDSHTQGEKVRMHTRLEFEGEIDGKRDTLEFETHQIVTKIDGRWVFESLEIE | 0.7 |
| HELDELTERTVKLFRDSSYTGDEDTLEDLADPNYRFVIDGKILMGREWVTRSLREWRVEDFRIHSVDLQGDKAHVDITVKGKFNGRFRTTRQEMVMMKVDGVWYFHSLTIR | 0.521 |
| HELEEEAKRAADIWFENLLTGDFDSLRKLVDPHVRMNYNGQEYHGWEEVIRFWKEYLDKVKNLQFHRHHVDVQGEKTTIDTRHIINGRSSEVEIRLLVINGRIQSNEVHEN | 1.14 |
| HELEERLEKWFKKFLHNMMTGDEDKLIHLADPHAKFRIDGVESHGRENWSRYVEERHLKLGLENIHVNVHRVHVQGDKIDMTGTLEINGQRVDFHIHIEVVDGRIKRLIIIIE | 0.732 |
| HELEHELEKFMQWIIEFLETGDEDALSTLLDPNVRYVINGQNLHGRSLLITTLHRLKEEIRVHWKIRDLKIQGDKAHSDGRFTIIVNGRKHSVDSHINVTIVDGRIHRVEIELR | 1.7 |
| HELKEELDEKLEFILRVFRTGNEERWRRLFDPEVRIEVGDKEIHGMDEALHFASHMRVEFKEMNFEDIRIVGEWVTLHIRVRGTIVYNGKKVERSMHIIIIILKIDGKWHIHEFRIH | 1.44 |
| HELLEHVKKIIEMWNKLLHTGDEETLNKLLDPRVRIHVNGRELIGREAVETELREIRFEITYTHVKEVDVVGDKVHVNTLLDGEFRIGNFVIRTRTDARLHLLKVDGKWLLESLHVT | 1.24 |
| HELLEIIHRVAQMIYENLLTGNEDLFEHLADPNRRLLVNGVDLVGWERVVKWEKEMRIHDHRLRDESMTRQGDKAFVHHRTELRGDINGREIHTETKLNIVIRKIDGKWIVERIEVRID | 0.81 |
| HELLKLVEEMARITVKLFMTGDWKTFKHLADPHVREIINGRTVHGMEKVVEHRKEFKEELWIESITIHDVEVQGEKAHLNTKLIGHVNGREVEVEIYVNIEIINGRWNLVEIDIR | 1.76 |
| HELQEEATRFIKEFQEAVRTGDWRLWKKQLDPHVRLDIDGRHYHGRDIVLEFLRELEDKMGIERENVHIEHIDFQGDKVIVHSKEHGIVNGQRFDDKSSSIVLKINGQWTLHSVKIR | 1.19 |
| HELVEEAITMWKEMLVDELTGDEKKTSQNLDPNYKMVIDGQEIHGMEEWSRFLKEIRLHHEDFHVKDARVIDGRVKIDGHIKGTLEINGKRTRTETDVHIILIKINGRWVTHSVHFK | 1.24 |

— the NTF2 design screens of Basanta et al. (2020)
